According to the MegaScale stability set (Tsuboyama et al. 2023):

B1: 2K2A (parent)
chain: ELREAFRLYDKEGNGYISTDVMREILAELDETLSSEDLDAMIDEIDADGSGTVDFEEFMGVMT

Variants of: B1
Test: folding stability dG (cDNA display proteolysis); higher = more stable
Settings: PBS, room temperature

| Variant | folding stability dG [kcal/mol] |
| --- | --- |
| E31D | 1.97 |
| E31W | 1.98 |
| E31Y | 2.01 |
| E31P | 2.61 |
| E31I | 1.93 |
| E31H | 2.26 |
| E31N | 2.15 |
| E31Q | 2.2 |
| E31G | 2.17 |
| E31C | 1.92 |
| E31S | 2.28 |
| E31R | 2.41 |
| E31T | 2.12 |
| E31M | 2.02 |
| E31L | 2 |
| E31F | 1.89 |
| L38R | 0.432 |
| L38I | 1.99 |
| L38F | 0.593 |
| L38T | 0.114 |
| L38E | -0.551 |
| L38A | 0.262 |
| L38S | -0.47 |
| L38Y | 0.134 |

| Variant | folding stability dG [kcal/mol] |
| --- | --- |
| L38C | 0.399 |
| L38V | 1.52 |
| L38H | -0.529 |
| L38P | -0.322 |
| L38M | 1.26 |
| L38W | 0.599 |
| L38K | 0.304 |
| L38Q | 0.089 |
| L38G | -0.721 |
| L38D | -0.787 |
| S34N | 1.58 |
| S34Y | 0.751 |
| S34M | 1.27 |
| S34W | 0.76 |
| S34L | 1.21 |
| S34P | 0.476 |
| S34F | 0.67 |
| S34R | 1.47 |
| S34Q | 1.18 |
| S34H | 0.919 |
| S34T | 2.12 |
| S34V | 1.02 |
| S34E | 1.05 |
| S34A | 1.26 |

| Variant | folding stability dG [kcal/mol] |
| --- | --- |
| S34C | 1.2 |
| S34G | 1.26 |
| S34K | 1.45 |
| S34I | 0.894 |
| S34D | 1.3 |
| M41Y | 1.61 |
| M41C | 1.37 |
| M41A | 1.27 |
| M41L | 2.03 |
| M41K | 1.49 |
| M41T | 0.556 |
| M41W | 2.43 |
| M41D | -0.547 |
| M41H | 0.645 |
| M41S | 0.166 |
| M41E | -0.173 |
| M41R | 1.47 |
| M41P | -0.862 |
| M41G | 0.01 |
| M41V | 1.21 |
| M41I | 1.86 |
| M41Q | 0.887 |
| M41N | -0.4 |
| M41F | 1.5 |

| Variant | folding stability dG [kcal/mol] |
| --- | --- |
| E28T | 2.03 |
| E28P | -0.155 |
| E28H | 2.2 |
| E28M | 2.28 |
| E28V | 1.76 |
| E28S | 2.34 |
| E28D | 1.78 |
| E28I | 1.85 |
| E28R | 2.59 |
| E28A | 2.46 |
| E28Y | 1.83 |
| E28C | 2.33 |
| E28W | 1.89 |
| E28K | 2.52 |
| E28Q | 2.24 |
| E28G | 2.28 |
| E28F | 1.77 |
| E28N | 2.22 |
| E28L | 2.25 |
| S35M | 1.86 |
| S35R | 1.96 |
| S35P | 2.06 |
| S35K | 2.14 |
| S35Y | 1.53 |

| Variant | folding stability dG [kcal/mol] |
| --- | --- |
| S35L | 1.69 |
| S35T | 1.81 |
| S35I | 1.79 |
| S35F | 1.48 |
| S35V | 1.77 |
| S35A | 1.92 |
| S35Q | 2.05 |
| S35G | 1.78 |
| S35E | 2.15 |
| S35D | 1.92 |
| S35C | 1.64 |
| S35H | 1.82 |
| S35N | 1.85 |
| S35W | 1.48 |
| D37A | 1.86 |
| D37K | 1.71 |
| D37T | 1.76 |
| D37R | 1.82 |
| D37E | 2.08 |
| D37Q | 2.1 |
| D37C | 2 |
| D37N | 1.32 |
| D37H | 1.4 |
| D37F | 1.22 |

| Variant | folding stability dG [kcal/mol] |
| --- | --- |
| D37W | 1.56 |
| D37G | 1.15 |
| D37S | 1.52 |
| D37Y | 1.26 |
| D37L | 1.59 |
| D37V | 1.66 |
| D37I | 1.65 |
| D37M | 1.96 |
| D37P | -0.169 |
| D39H | 1.13 |
| D39I | 1.33 |
| D39W | 1.22 |
| D39C | 1.16 |
| D39K | 1.48 |
| D39L | 1.3 |
| D39T | 1.3 |
| D39V | 0.996 |
| D39M | 1.32 |
| D39E | 1.4 |
| D39N | 1.58 |
| D39Y | 1.06 |
| D39S | 1.39 |
| D39Q | 1.57 |
| D39F | 1.15 |

| Variant | folding stability dG [kcal/mol] |
| --- | --- |
| D39P | -0.067 |
| D39G | 0.971 |
| D39A | 1.48 |
| D39R | 1.41 |
| L33Q | 0.501 |
| L33T | 0.695 |
| L33W | 1.83 |
| L33F | 1.34 |
| L33M | 1.41 |
| L33P | -0.18 |
| L33C | 1.07 |
| L33K | 0.956 |
| L33D | -0.084 |
| L33V | 0.861 |
| L33G | -0.126 |
| L33R | 1.36 |
| L33A | 1.02 |
| L33Y | 1.43 |
| L33I | 1.36 |
| L33E | -0.382 |
| L33H | 0.717 |
| L33N | 0.113 |
| L33S | 0.411 |
